“Also recorded” adds a separate entry of the source.
B1: S1G2: anti-tau clone, SEQ ID NO: 81 (protein)
scFv: QVQLQESGPSLVKPSQTLSLTCTVSGFSLTSNSVGWVRQAPGKAPEWVAGIDTDGEEGYNPALNSRLSITRDTSKSQVSLSLSSVTSEDTAVYYCGRSYRADGLAYGYVQAIDYWGPGLLVTVSSEGKSSGASGESKVDDQAVVTQPSSVSGSLGQRVSITCSGSFIGISSVGWFQQLPGSGLRTIIVASDGRPSGVPDRFSMSKSGNTATLTISSLQAEDEADYFCGSSDRTPYTGVFGSGTRLTVLG
modifications: S1G2 amino acid sequence
B2: S1D12: anti-tau clone from immunised sheep, SEQ ID NO: 32 (protein)
scFv: QVQLQESGPSLVKPSQTLSLTCTVSGFSLNNNAVGWVRQAPGKVPESLVGCSSDGTCYYNSALKSRLDITRDTSKNQISLSLSSVTTDDAAVYYCTRGHYSIYGYDYLGTIDYWGPGLLVTVSSEGKSSGASGESKVDDQAVLTQPSSVSGSLGQRVSITCSGSSSNVGGGNSVGWYQHLPGSGLKTIIYDTNSRPSGVPDRFSGSRSGNTATLTINSLQAEDEGDYYCVTGDSTTHDDLVGSGTRLTVLG
modifications: S1D12 amino acid sequence

What was measured:
[1] = target: dGA (Homo sapiens, UniProt P10636); experiment: Biacore X100 SPR, scAb captured via anti-HuCk, dGA as analyte; type: binding; details: dissociation rate
Protocol: Surface plasmon resonance (SPR) is widely regarded as the gold standard for real time measurement of protein-protein interactions such as antibody binding. All SPR experiments were carried out using a Biacore X100 machine and HBS EP+ running buffer (GE Healthcare). A ‘capture’ method was followed for affinity measurements, where an anti-human constant kappa chain (HuCk) antibody was conjugated to the surface of a CM5 sensor chip using an amine coupling kit and scAb molecules were immobilised via their HuCk domain. Amine coupling is a very common approach for immobilising the ligand to the chip surface. The chip surface has a dextran matrix derivatised with carboxyl groups, which after activation with N-hydroxysuccinimide (NHS) and 1-ethyl-3-(3-dimethylaminopropyl) carbodiimide (EDC), form reactive succinimide esters which allows the covalent capturing of the ligand via any available primary amine groups (e.g. Lysine) on the ligand (in this case anti-HuCk antibody). The capture antibody was diluted 1/100 in 10 mM Sodium acetate buffer pH 5.0 and passed over the activated chip surface for a period of at least 420 s. Final ligand immobilisation levels over 12,000 RU were deemed to be satisfactory.
Following immobilisation, the level of each scAb to be captured was identified using the standard SPR equation with a theoretical RMax of 100 RU. Analyte MW refers to the molecular weight of hT40 or dGA/dGAE molecules, while ligand MW refers to the molecular weight of the scAbs tested. RL is the desired capture level and S refers to the stoichiometric ratio:
The scAb to be tested was added only to flow cell 2 so that flow cell 1 could act as a control to subtract any interaction with the analyte and the chip surface. Both single and multi-cycle runs were utilised using wizards developed in the Biacore X100 control software which are both accepted methods of kinetic analysis (Karlsson, R., et al. Analyzing a kinetic titration series using affinity biosensors (2006) Analytical Biochemistry 349:136-47). The multi-cycle protocol was as follows-Three start-up cycles composed of an initial capture, to the desired level, of the scAb to be tested was performed followed by a 30 s injection of glycine buffer pH 2.0 after each cycle to regenerate the chip surface. The regeneration step removed any captured scAb whilst leaving the capture antibody intact and able to repeat the capture for the next cycle. Following three start-up cycles increasing concentrations (0.15625 nM-100 nM) of the target to be tested were added to the chip surface after the desired scAb capture. The target was added for a 120 s association period and 420 s dissociation period followed by another regeneration, 30 s injection of glycine buffer pH 2.0 in between each cycle.
The single cycle kinetics protocol was similar and utilised the same level of scAb capture. Three start-up cycles were used followed by 5 increasing concentrations of the analyte (6.25 nM-100 nM) for an association period of 120 s followed by a dissociation period of 420 s for each concentration. In single cycle kinetics the regeneration step was performed only after the final analyte concentration was added. Binding responses were analysed in Biacore X100 evaluation software and data fitted to a 1:1 binding model to obtain kinetic and affinity characterisation.

[2] = target: dGAE aggregates (Homo sapiens, UniProt P10636); experiment: Sandwich ELISA on SDS/Triton X-100 treated dGAE aggregates; type: binding
Protocol: For aggregation, 1000 μL 100 μM dGAE+10 μL 10 mM DTT was added to a ‘LoBind’ microfuge tubes and agitated at 700 RPM/37° C., for 24 hours. Resulting sample centrifuged at 17,000×g/4° C., for 60 min and supernatant discarded to remove left over monomer. Pellet resuspended in half the original volume for future experiments and hereafter referred to as ‘aggregates’. 1 μl of aggregates was added to 1 ml of PBS and SDS was added to a final concentration of 1% (w/v). This was left to incubate on lab bench for 1 h with gentle agitation every 15 minutes. In order to neutralise the SDS effect on ELISA, Triton X-100 added to a final concentration of 3% (v/v) and mixed gently by pipetting to prevent any bubble formation. […] Similarly aggregates treated with only SDS or Triton X-100, untreated aggregates, dGAE monomers treated with only SDS or SDS+Titon X-100 were also added to designated wells as controls. All samples were then double diluted across the plate in final volumes of 100 μl. The final column was left with no protein to act as a blank. This was allowed to stand at room temperature for 1 hour followed by the addition of detection scAb-S1G2 at 10 μg/ml. Anti-HuCk HRP labelled secondary antibody was added as described previously and ELISA data generated was represented using the graph below. In addition, limits of detection (LoD) of various core binding antibody pairing for SDS Triton X-100 treated dGAE aggregates were calculated using the above describe ELISA method and substituting capture mAbs and detection scAbs as shown in Table 30.

[3] = target: dGAE (Homo sapiens, UniProt P10636); experiment: dGAE fibril assembly, transmission electron microscopy; type: biochemical; details: dGAE:antibody 4:1 or 1:1, 700 rpm, 37° C., 3 days
Protocol: dGAE protein was diluted into 10 mM phosphate buffer, pH 7.4 (PB) with monoclonal antibody s1D12 at a ratio of 4:1 protein: Ab (100 μM dGAE+25 μM s1D12 and 10 μM dGAE+2.5 μM s1D12) or 1:1 (25 μM dGAE+25 μM s1D12).
As a positive control, dGAE was prepared at a final concentration of 10, 25 or 100 μM in 10 mM PB. Negative controls consisted of dGAE with a non-tau IgG antibody at a ratio of 4:1 (10 μM dGAE+2.5 μM anti-ovalbumin), or antibody alone (25 or 2.5 μM s1D12 and 2.5 μM anti-ovalbumin). Samples were agitated at 700 rpm at 37° C., for 3 days.
Transmission electron microscopy (TEM), circular dichroism (CD) and Thioflavin S (ThS) assays were performed as detailed in Al-Hilaly et, al. (2018) J. Mol. Biol. 430, 4119-4131. Briefly, TEM grids were prepared by adding 4 μL of sample to a carbon-coated grid followed by a wash with milli-Q filtered water then staining twice with 2% uranyl acetate. Grids were air dried and then imaged using a JEOL electron microscope operating at 80 kV.

Chain of dGA (P10636 614-707): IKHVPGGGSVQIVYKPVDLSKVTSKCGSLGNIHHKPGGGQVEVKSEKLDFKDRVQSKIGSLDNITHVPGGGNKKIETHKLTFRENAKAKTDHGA
Chain of dGAE (P10636 614-708): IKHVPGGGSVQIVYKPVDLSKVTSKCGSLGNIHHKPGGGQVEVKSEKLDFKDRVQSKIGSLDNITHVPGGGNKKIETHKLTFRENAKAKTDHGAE
Chain of dGAE aggregates (P10636 614-708): as above

Row | Molecule | Kd [1] [s⁻¹] | LoD ([2]; S1D12 mAb capture, untreated dGAE agg.) [ng/mL] | LoD ([2]; direct immobilisation of dGAE aggregates, +SDS Triton) [ng/mL] | dGAE fibrils observed by TEM [3]
1 | B1 | 0.0003499 | 250 | 16 | –
2 | B2 | 0.000418 | – | – | no fibrils were present; also recorded: no fibril formation is observed

Reference: patent US12624096B2, “Anti-tau antibodies and methods of use thereof” (GTInvent Limited, priority 2020, dated 2026)
